In patent US20150266962A1 (Pfizer, published 2015):

T1: recombinant human IL-13 receptor alpha 2 (hIL-13-Rα2) (human, UniProt Q14627 27-343)
T1 construct: Recombinant soluble antigen coated on ELISA plates or used in Biacore; also called rec hIL-13Rα2; rhIL-13Rα2
T1 sequence (looked up): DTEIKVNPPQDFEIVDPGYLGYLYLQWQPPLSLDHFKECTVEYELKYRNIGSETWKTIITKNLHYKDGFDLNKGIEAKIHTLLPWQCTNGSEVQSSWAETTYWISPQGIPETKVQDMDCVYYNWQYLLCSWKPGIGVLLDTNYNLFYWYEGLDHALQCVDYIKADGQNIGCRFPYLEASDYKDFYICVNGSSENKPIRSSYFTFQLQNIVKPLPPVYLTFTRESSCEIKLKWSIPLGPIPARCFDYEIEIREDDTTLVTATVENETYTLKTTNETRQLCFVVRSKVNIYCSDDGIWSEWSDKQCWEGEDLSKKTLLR

T2: recombinant mouse IL-13-Rα2 (mIL-13-Rα2) (mouse, UniProt O88786 22-334, limits assumed)
T2 construct: also called murine mIL-13Rα2
T2 sequence (looked up): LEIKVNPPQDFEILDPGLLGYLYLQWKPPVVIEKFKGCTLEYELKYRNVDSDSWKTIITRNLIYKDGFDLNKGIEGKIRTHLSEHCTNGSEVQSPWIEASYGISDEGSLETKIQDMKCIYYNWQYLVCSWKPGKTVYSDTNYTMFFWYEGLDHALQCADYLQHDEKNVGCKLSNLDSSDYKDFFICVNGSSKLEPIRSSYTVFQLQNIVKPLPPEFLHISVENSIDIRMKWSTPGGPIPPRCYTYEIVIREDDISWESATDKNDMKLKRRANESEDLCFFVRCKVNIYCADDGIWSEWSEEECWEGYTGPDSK

B1: chimeric antibody ch07 (antibody, human IgG1, V domains shown)
VH: QVQLKESGPGLVAPSQSLSINCTVSGFSLTKYGVHWIRQSPGKGLEWLGVKWAGGSTDYNSALMSRLTISKDNNKSQVFLKMNSLQSDDSAMYYCARDHRDAMDYWGQGTSVTVSS
VL: QVVLTQSPAIMSASPGERVTMTCTASLSVSSTYLHWYHQKPGSSPKLWIYSTSNLASGVPARFSGSGSGTSYSLTISSMEAEDAATYYCHQYHRSPLTFGSGTKLELK
notes: also called chimeric antibody 07; biotin-ch07 (biotinylated form)
B2: chimeric antibody ch08 (antibody, human IgG1, V domains shown)
VH: EVQLVESGGDLVRPGGSLQLSCAASGFTFSRNGMSWVRQTPDRRLEWVATVSSGGSYIYYADSVKGRFTISRDNARNTLYLQMSSLKSEDTAMYYCARQGTTALATRFFDVWGAGTTVTVSS
VL: DIVMTQSHKFISTSVGDRVSITCKASQDVGTAVAWYQQIPGQSPKLLIYSASYRSTGIPDRFTGSGSGTDFSFIISSVQAEDLALYYCQHHYSAPWTFGGGTTLDIK
notes: also called ch08Hc + Lc; chimeric antibody 08

Tests used:
[1] = target: T1, recombinant human IL-13 receptor alpha …; test: SPR Biacore, pH 7.4
Description: To assess the binding kinetics of the ch07 and ch08 antibodies, SPR (Surface Plasmon Resonance) experiments were conducted on a Biacore® T100 or T200 instrument using a Biacore® human Fab Capture Kit (GE Healthcare). All data was analyzed using the Biacore® T100 evaluation software version 2.0 with a 1:1 Langmuir binding model.
Kₐ, Kd and KD are shown on Table 5. […] At pH6.0, ch07 and ch08 binding affinity to hIL-13-Rα2 are in the low nM range. Dissociation rates of ch08 and ch07 are very similar. Higher KDs at pH6.0 than pH7.4 are due to a slower association rate.

[2] = target: T1, recombinant human IL-13 receptor alpha …; test: direct ELISA on rhIL-13Rα2 (given as ED50)
[3] = target: T1, recombinant human IL-13 receptor alpha …; test: direct ELISA on rhIL-13Rα2, purified protein (given as ED50)
[4] = target: T2, recombinant mouse IL-13-Rα2 (mIL-13-Rα2); test: direct ELISA on coated recombinant mIL-13-Rα2, serially diluted purified ch07
Description: (§1) The binding of hu07 and hu08 to mouse IL-13-Rα2 was evaluated by direct ELISA. The identity between human and mouse IL-13-Rα2 at the amino acid level is approximately 64%. Recombinant mIL-13-Rα2 or hIL-13-Rα2 (as positive control) was coated onto a 96-well plate. Purified chimeric ch07 and ch08 were serially diluted and added to the antigen coated plate. The bound antibodies were detected by HRP conjugated goat anti-human IgGFc specific secondary antibody.

[5] = target: T1, recombinant human IL-13 receptor alpha …; test: competition ELISA on plate (recombinant IL-13-Rα2), competitor biotinylated ch07
[6] = target: T1, recombinant human IL-13 receptor alpha …; test: direct ELISA on coated recombinant hIL-13-Rα2
Description: Humanized hu08 binding to recombinant hIL-13-Rα2 was evaluated by a standard direct ELISA. Recombinant hIL-13-Rα2 was coated onto a 96-well plate. Serially diluted chimeric antibodies or humanized antibodies in combinations of heavy and light chains of versions 1.0 and 1.1 e.g. hu08 v1.0 HC/1.0 LC, hu08 v1.0 HC/v1.1 LC, hu08 v1.1 HC/v1.0 LC, and hu08 v1.1 HC/v1.1 LC, were added to the plate and incubated at room temperature for 1-2 hours. The binding was detected by HRP conjugated goat anti-human Ig Kappa.

[7] = target: T2, recombinant mouse IL-13-Rα2 (mIL-13-Rα2); test: direct ELISA on coated recombinant mIL-13-Rα2, serially diluted purified ch08
Description: as §1

[8] = target: T1, recombinant human IL-13 receptor alpha …; test: competition ELISA on coated recombinant hIL-13-Rα2, competitor biotin-ch08
Description: A competition ELISA was performed to assess whether hu08 1.0 and hu08 v1.1 compete with ch08 for IL-13-Rα2 binding. Recombinant hIL-13-Rα2 was coated onto 96-well plates at 50 ul of […] in PBS overnight at 4° C. Plates were then blocked and washed following standard ELISA protocol. A 3-fold serially diluted ch08, hu08 1.0 and hu08 v1.1, and negative control ch07 (2× final concentration) were mixed with biotinylated ch08 (2×EC₅₀). 50 μl of the antibody and biotin-ch08 mixture were added to the plate and incubated for 1 hour at room temperature. The amount of biotin-ch08 bound was detected by HRP conjugated streptavidin.

[9] = target: T1, recombinant human IL-13 receptor alpha …; test: competition ELISA on plate-coated recombinant hIL-13-Rα2; competitor: constant amount of biotin-ch08, detected with streptavidin-HRP
Description: A competition ELISA was performed to examine whether ch07 and ch08 have distinct binding epitopes. Prior to the competition ELISA experiment, ch07 and ch08 were biotinylated. The EC50 of the biotinylated ch07 (biotin-ch07) and ch08 (biotin-ch08) were determined by direct standard ELISA. For the competition ELISA, recombinant hIL-13-Rα2 was coated onto 96-well plates at 50 ul of 2 μg/mL in PBS overnight at 4° C. The plates were then blocked and washed following a standard ELISA protocol. 3-fold serially diluted ch07 and ch08 (2× final concentration) were mixed with a constant amount of biotin-ch07 (FIG. 2A) or biotin-ch08 (FIG. 2B), respectively and were added to the plate and incubated for 1 hour at room temperature. The amount of biotinylated chimeric antibody bound was detected by HRP conjugated streptavidin at 1:5000 for 1 hour. […] Similar results are obtained when the same set of antibodies were used to compete with biotin-ch08 (FIG. 2B).

Binder	fold slower dissociation than ch08 [1]	EC50 [2]	EC50 [3]	binding result [4]	IC50 [5]	EC50 [6]	binding result [7]	IC50 [8]	IC50 (read off the curve) [9]
B1	~2 fold	0.217 nM	0.39 nM	no binding	2.21 nM	–	–	–	–
B2	–	–	–	–	–	0.152 nM	no binding	1.98 nM	~6 nM
